How the values were obtained:
[1] = biological target: elastase from porcine pancreas (porcine) (UniProt P00772)
[2] = biological target: α-chymotrypsin from bovine pancreas (bovine)
[3] = biological target: Cathepsin G from human leukocytes (human) (UniProt P08311)
UniProt P08311, sequence (P08311 21-244): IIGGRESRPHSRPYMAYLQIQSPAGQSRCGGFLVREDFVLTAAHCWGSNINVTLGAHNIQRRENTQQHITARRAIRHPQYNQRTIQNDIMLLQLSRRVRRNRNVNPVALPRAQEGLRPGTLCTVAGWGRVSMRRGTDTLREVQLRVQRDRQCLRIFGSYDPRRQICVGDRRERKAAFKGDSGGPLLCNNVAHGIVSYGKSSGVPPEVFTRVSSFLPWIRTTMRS

UniProt P00772, sequence (P00772 27-266): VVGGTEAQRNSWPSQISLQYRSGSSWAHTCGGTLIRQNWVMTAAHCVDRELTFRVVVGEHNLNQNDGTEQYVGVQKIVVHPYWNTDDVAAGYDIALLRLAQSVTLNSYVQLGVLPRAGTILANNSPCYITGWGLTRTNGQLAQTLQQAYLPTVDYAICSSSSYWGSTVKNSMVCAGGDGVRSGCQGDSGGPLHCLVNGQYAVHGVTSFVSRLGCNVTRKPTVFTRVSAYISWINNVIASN

Substance: E. coli expressed Hyalomma anatolicum serpin-1 (eHAMpin-1) (natural protein)
- decrease of the proteolytic activity of the protease (100 nM) after preincubation with 1 μM eHAMpin-1 for 30 min at 37 °C; chromogenic substrate [1]: > 45%
- decrease of the proteolytic activity of the protease (96 nM) after preincubation with 1 μM eHAMpin-1 for 30 min at 37 °C; chromogenic substrate [2]: > 90%
- decrease of the proteolytic activity of the protease (110 nM) after preincubation with 1 μM eHAMpin-1 for 30 min at 37 °C; chromogenic substrate [3]: > 90%

Reference: article PMC11417211
